This series concerns MS2 coat protein. Nature of the series: apparent KD of MS2 coat protein; designed switch direction (-1 OFF switch, 1 ON switch): -1; higher = weaker reporter binding. The method, boiled down:
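The buffer was Tris-HCl pH 7.5 with KCl, MgCl2, BSA, DTT, tRNA and Tween-20. In it, SNAP-549-labelled MS2 coat protein was titrated in doubling steps from 0.7 or 1.5 nM to 3 µM over chip-bound RNA switches transcribed by stalled E. coli RNA polymerase on Illumina chips. Apparent KD is the per-design median over clusters of curve fits to normalised fluorescence.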

Setting [1] is: Eterna round: R95, input ligand: microRNA oligo, concentration not stated.
[2] abbreviates: Eterna round: R95, input ligand: FMN 200 uM.
Setting [3] is: Eterna round: R95, input ligand: none.
Setting [4] is: input ligand: microRNA oligo, concentration not stated.

On to “UAUUUGCAAGGAUAUGAUUUAAGUAACAUGAGGAUCACCCAUGUUUUUCCGUUGUUAUGUUCAGAAGGUGCGUGAU [JR_E5_Sub020] (puzzle: Exclusion 5)”, for which the “apparent KD of MS2 coat protein” value under setting [1] was found to be 50.9 nM.
Consider “CCGCUGCAAGGAUAUACUUGCGGUGGUGCUCGAGUUCUUCUACUUGAGGAUCACCCAAGUAGAAGGUGCAAAAC [jl-ex2.4.57 ViennaUCT mod] (Eterna round: R97, puzzle: Exclusion 2)”, for which the “apparent KD of MS2 coat protein” value amounted to 34.4 nM (input ligand: FMN 200 uM) and 17.1 nM (input ligand: none).
On to “CUGAGUUAAGGAUAUACAUGAGGAUCACCCAUGUAAAGUAGCUUGCGUACAGGCAGAUGUAGAAGGUAAUUCGG [Mod of JL 8 - Jieux - Exclusion 3] (Eterna round: R97, puzzle: Exclusion 3)”, for which the “apparent KD of MS2 coat protein” value (input ligand: FMN 200 uM) worked out at 37.2 nM.
As to “AUUCAACAUGAGGAUCACCCAUGUGAGGAUAUGCGAGAAUAGACUUCGGUCAGAUAGAGCAGAAGGCGCAGAUA [EX1 #5] (Eterna round: R97, puzzle: Exclusion 1)”, the “apparent KD of MS2 coat protein” value (input ligand: FMN 200 uM) is 22 nM and the “apparent KD of MS2 coat protein” value (input ligand: none) is 29.1 nM.
With “GCCAGAGCAGGAUAUUCAAAACCUCACAUGAGGAUCACCCAUGUGGCCGAAAGGCCGGGAGGAGAAGGGCUCUGGC [Fiskers Ex 5 - 1] (puzzle: Exclusion 5)”, the “apparent KD of MS2 coat protein” value reads like this: under setting [2], 49.8 nM; under setting [1], 13.3 nM; under setting [3], 15.8 nM.
On to “AUUGAUGUUGAGGAUAUGCUUUUAUUUAUAAUAGCAGAAGGCGAUACAUGAGGAUCACCCAUGUUCAUGGUAGU [JR_E6_Sub095] (Eterna round: R96, puzzle: Exclusion 6)”, for which the “apparent KD of MS2 coat protein” value was 77.6 nM (input ligand: FMN 200 uM), 52.3 nM under setting [4] and 63.4 nM (input ligand: none).
“ACGAUGACCGAAAAGUGUCAACUGACAUGAGGAUCACCCAUGUAGGAUAUGGCUACGAAAAGUAGUCAGAAGGACAUGUCAUCA [Omei Exc(NG) 3 Av6] (Eterna round: R96, puzzle: Exclusion NG 3)”: the “apparent KD of MS2 coat protein” value (input ligand: FMN 200 uM) came to 17.6 nM, the “apparent KD of MS2 coat protein” value under setting [4] worked out at 10.5 nM and the “apparent KD of MS2 coat protein” value (input ligand: none) came out at 15.4 nM.
“CCCGUGUAAGGAUAUGACAAUGGUAUCUUCGGAUACCAUUGUCAGAAGGUACAUGAGGAUCACCCAUGUAACAC [Ex4-3: 14] (puzzle: Exclusion 4)”: under setting [1], the “apparent KD of MS2 coat protein” value is 28 nM.
For the sequence “UACACUGCAUGAGGAUCAAACAUGAGGAUCACCCAUGUGUAGCAAGCUUUUUGCUCGUCUUAUAAUUAUGUAGUGUA [Electric Eye 11 - Jieux - Sensor, turn-off variant 1] (Eterna round: R97, puzzle: Sensor, turn-off variant 1)”, the “apparent KD of MS2 coat protein” value reads like this: (input ligand: FMN 200 uM) 14 nM; (input ligand: none) 12.1 nM.
In the case of “UAGUGAAACACAGGAUAUCGCCUCUUAUUACAUGAGGAUCACCCAUGUUUAGUUAGUUACAUGUACGAGAAGGGUGAAGUAGUU [JR_ExcNG2_Sub040] (Eterna round: R96, puzzle: Exclusion NG 2)”, the “apparent KD of MS2 coat protein” value reads like this: (input ligand: FMN 200 uM) 1110 nM; under setting [4], 674 nM; (input ligand: none) 1430 nM.
Turning to “UCGCUGCGAGGAUAUACGUGCGCGCGCUCGCGUGCGCGCGUACAUGAGGAUCACCCAUGUAGAAGGCGCGCUGC [Apr-15 SS2-4] (puzzle: Exclusion 2)”, under setting [1], the “apparent KD of MS2 coat protein” value amounted to 13.4 nM.
As to “UUAUAGUAUGUAGGAUAUCGGUCAGUUUCUGAUCGAGAAGGACAUGAGGAUCACCCAUGUAAGGCUACCGGUUUCUGGUGGCCU [JL ENG1 3.52] (Eterna round: R96, puzzle: Exclusion NG 1)”, the “apparent KD of MS2 coat protein” value by setting is: (input ligand: FMN 200 uM) 94.4 nM; under setting [4], 18.5 nM; (input ligand: none) 20.9 nM.
The matching figures for “ACAAUUAUGACAGGAUAUAGUUUUUGUUGGUCACUAGAAGGGUCUAUGCACAUGAGGAUCACCCAUGUUCUUUUUAUAUGCGAU [JR_ExcNG1_Sub018] (Eterna round: R96, puzzle: Exclusion NG 1)”: 31.8 nM, 36.2 nM and 44.4 nM.
For “GCCUGAGCAGGAUAUUCAAUAAUUCACAUGAGGAUCACCCAUGUCCAGCGAAAGCUAGGAGGAGAAGGGCUCAGGC [Mat - Exclusion 5 - Eli mod - D86] (puzzle: Exclusion 5)”, the “apparent KD of MS2 coat protein” value reads like this: under setting [2], 18.3 nM; under setting [1], 16.5 nM; under setting [3], 17.8 nM.
For “GUCGUGUUAGGAUAUGGCAACGGCUAGUAAACUAGUUGUUGUUAGAAGGAACAUGAGGAUCACCCAUGUAUGAC [-24.6, -24.1 kcal, A 30%] (Eterna round: R97, puzzle: Exclusion 4)”, the “apparent KD of MS2 coat protein” value (input ligand: FMN 200 uM) turned out to be 98.1 nM and the “apparent KD of MS2 coat protein” value (input ligand: none) turned out to be 34.4 nM.
For the sequence “GCCUCACAUGAGGAUCACCCAUGUCAGGAUAUCUCGUGCGCAGUAAUUAUCUGGCUAAAGAGAAGGGACAUUAA [Bedile] (puzzle: Exclusion 1)”, the “apparent KD of MS2 coat protein” value under setting [1] worked out at 46.6 nM.
As to “UAAUUGAUUAAUAAAUUAUACAUGAGGAUCACCCAUGUAGAUCCUACGUGCCAUUUAAGUAGCUCGUCUUAUUAUUA [Sensor-V1 #64] (Eterna round: R97, puzzle: Sensor, turn-off variant 1)”, the “apparent KD of MS2 coat protein” value is, setting by setting: (input ligand: FMN 200 uM) 142 nM; (input ligand: none) 228 nM.
Consider “ACAAGCUUUUGCUCGUCUUACAUGAGGAUCACCCAUGUCGGGAGCAUGCAUACGUCCAGCAUCUGGACCGUAGCAGA [-25.7, -49.8 kcal, 25% A] (Eterna round: R97, puzzle: Sensor, turn-off variant 1)”, for which the “apparent KD of MS2 coat protein” value (input ligand: FMN 200 uM) came to 16.3 nM and the “apparent KD of MS2 coat protein” value (input ligand: none) turned out to be 18.1 nM.
As for “ACAUGUCUUGUAGGAUAUAGUUGACAUGAGGAUCACCCAUGUUGAUUCAUGUCUAUGGAAACGGACUAGAAGGACGAGAAUAUG [Ex NG2 #17] (Eterna round: R96, puzzle: Exclusion NG 2)”, the “apparent KD of MS2 coat protein” value runs as follows: (input ligand: FMN 200 uM) 50.5 nM; under setting [4], 25.3 nM; (input ligand: none) 25.9 nM.
The matching figures for “GUAAUGCUGCGAGGAUAUACAUGAGGAUCACCCAUGUGGAUGUCUGAGGCUUUGCCUCAGACGAUGUAGAAGGCGCAGUAAAAU [Mat - Exclusion NG 2 - Mod of JL - D53] (Eterna round: R96, puzzle: Exclusion NG 2)”: 87.5 nM, 11.5 nM and 28.3 nM.
Turning to “CUUUUGUGAGGAUAUUAGUAGUUUAUAAUUAAAAUUAUUACUGAGAAGGCACAUGAGGAUCACCCAUGUAAAAC [JR_Ex4_Sub029] (Eterna round: R97, puzzle: Exclusion 4)”, the “apparent KD of MS2 coat protein” value is 122 nM (input ligand: FMN 200 uM) and 104 nM (input ligand: none).
As to “ACUUAUAGAGGAUAUACAGAUUAUUACAUGAGGAUCACCCAUGUUCUUCAAUGUAUAUAUGUAGAAGGCUAAGGAA [JL-ex5-4.23 Malcolm mod] (Eterna round: R97, puzzle: Exclusion 5)”, the “apparent KD of MS2 coat protein” value runs as follows: (input ligand: FMN 200 uM) 381 nM; (input ligand: none) 82.2 nM.
Turning to “UGCCUACGUGUGAGGAUAUCAAGGUUUCCACACUAUGAGAAGGUACAUGAGGAUCACCCAUGUUUAGAUGAGCC [Eternabot (L2) Solution 43] (Eterna round: R97, puzzle: Brourd's mod of Exclusion 4)”, the “apparent KD of MS2 coat protein” value by setting is: (input ligand: FMN 200 uM) 74.2 nM; (input ligand: none) 74.6 nM.
As for “GGUUGGCGAGGAUAUACAUGAGGAUCACCCAUGUGAGAGAAAAAAGUCAGGAAGAAAAGUAGAAGGCGCUGACG [salish99_ex3_r3_028] (puzzle: Exclusion 3)”, the “apparent KD of MS2 coat protein” value runs as follows: under setting [2], 32.4 nM; under setting [1], 21.7 nM; under setting [3], 22.5 nM.
Consider “AAGUACCGUCACGAUAGUGAUGGUACAACAAGCAUGUAAACAUGAGGAUCACCCAUGUCCUCAUAUGCUCGUCUUAU [Sensor 3 - 64] (puzzle: Sensor v3, turn-off variant 2)”, for which the “apparent KD of MS2 coat protein” value is 375 nM under setting [2], 34.3 nM under setting [1] and 566 nM under setting [3].
Take “AGAAGUAGAAACCGAUCCUACAUGAGGAUCACCCAUGUAGCAAGACGUGCACGCGAAGCUCGUCAGACUACCAGAUG [salish99_TOv1_r3_017] (puzzle: Sensor v3, turn-off variant 1)”: the “apparent KD of MS2 coat protein” value runs as follows: under setting [2], 297 nM; under setting [1], 108 nM; under setting [3], 313 nM.
For “GUAAAGUGAGGAUAUGGUAAAGUAAGUAUUUAGUAAGUAAUCCAGAAGGCACAUGAGGAUCACCCAUGUAAAUG [Mat - Exclusion 4 - D98] (puzzle: Exclusion 4)”, under setting [1], the “apparent KD of MS2 coat protein” value was 29.2 nM.
Take “CCCAAGUCAGGAUAUGGAACACAGAGACAUCUCUGUGCCCACCAGAAGGGACAUGAGGAUCACCCAUGUGAUGA [Soesat] (puzzle: Exclusion 4)”: the “apparent KD of MS2 coat protein” value under setting [1] was 56.6 nM.
Take “UAAUUAAAUGUAGGAUAUCUGCACGAUUAGUGCAGAGAAGGACAUGAGGAUCACCCAUGUAGAUCAAAUUAAAUUAAUUUAAUU [ENG1/5-D1] (Eterna round: R96, puzzle: Exclusion NG 1)”: the “apparent KD of MS2 coat protein” value runs as follows: (input ligand: FMN 200 uM) 92.2 nM; under setting [4], 24.5 nM; (input ligand: none) 33.8 nM.
For the sequence “UUGAUGUGAGGAUAUAUUUUGUGUUUUCUUUAUGUUUUAUAACUUGAGGAUCACCCAAGUAGAAGGCGCUACGU [JR_Ex2_Sub065] (Eterna round: R97, puzzle: Exclusion 2)”, the “apparent KD of MS2 coat protein” value was 119 nM (input ligand: FMN 200 uM) and 60.6 nM (input ligand: none).
Regarding “GCACGGAGUGUAGGAUAUCUGUGCGAUUAGCUCAGAGAAGGGCACAUGAGGAUCACCCAUGUGUAUAAACACAAUAAUCCGUGC [Eli exng1 - 069] (Eterna round: R96, puzzle: Exclusion NG 1)”, the “apparent KD of MS2 coat protein” value (input ligand: FMN 200 uM) amounted to 12.8 nM, the “apparent KD of MS2 coat protein” value under setting [4] was 7.91 nM and the “apparent KD of MS2 coat protein” value (input ligand: none) came to 14.1 nM.

For the origin of these results see the supplement of paper PMC9170038.
